Reference: article PMC11574045, “A cofactor-induced repressive type of transcription factor condensation can be induced by synthetic peptides to suppress tumorigenesis” (The EMBO Journal, 2024)

B1: HESX (protein, UniProt Q9UBX0 1-185, looked up)
Homeobox expressed in ES …: MSPSLQEGAQLGENKPSTCSFSIERILGLDQKKDCVPLMKPHRPWADTCSSSGKDGNLCLHVPNPPSGISFPSVVDHPMPEERASKYENYFSASERLSLKRELSWYRGRRPRTAFTQNQIEVLENVFRVNCYPGIDIREDLAQKLNLEEDRIQIWFQNRRAKLKRSHRESQFLMAKKNFNTNLLE
B2: HLX (protein, UniProt Q14774 1-488, looked up)
H2.0-like homeobox protein: MFAAGLAPFYASNFSLWSAAYCSSAGPGGCSFPLDPAAVKKPSFCIADILHAGVGDLGAAPEGLAGASAAALTAHLGSVHPHASFQAAARSPLRPTPVVAPSEVPAGFPQRLSPLSAAYHHHHPQQQQQQQQPQQQQPPPPPRAGALQPPASGTRVVPNPHHSGSAPAPSSKDLKFGIDRILSAEFDPKVKEGNTLRDLTSLLTGGRPAGVHLSGLQPSAGQFFASLDPINEASAILSPLNSNPRNSVQHQFQDTFPGPYAVLTKDTMPQTYKRKRSWSRAVFSNLQRKGLEKRFEIQKYVTKPDRKQLAAMLGLTDAQVKVWFQNRRMKWRHSKEAQAQKDKDKEAGEKPSGGAPAADGEQDERSPSRSEGEAESESSDSESLDMAPSDTERTEGSERSLHQTTVIKAPVTGALITASSAGSGGSSGGGGNSFSFSSASSLSSSSTSAGCASSLGGGGASELLPATQPTASSAPKSPEPAQGALGCL
B3: HMG1 (protein, UniProt P09429 1-215, looked up)
High mobility group protein B1: MGKGDPKKPRGKMSSYAFFVQTCREEHKKKHPDASVNFSEFSKKCSERWKTMSAKEKGKFEDMAKADKARYEREMKTYIPPKGETKKKFKDPNAPKRPPSAFFLFCSEYRPKIKGEHPGLSIGDVAKKLGEMWNNTAADDKQPYEKKAAKLKEKYEKDIAAYRAKGKPDAAKKGVVKAEKSKKKKEEEEDEEDEEDEEEEEDEEDEDEEEDDDDE
B4: HHEX (protein, UniProt Q03014 1-270, looked up)
Hematopoietically-expressed …: MQYPHPGPAAGAVGVPLYAPTPLLQPAHPTPFYIEDILGRGPAAPTPAPTLPSPNSSFTSLVSPYRTPVYEPTPIHPAFSHHSAAALAAAYGPGGFGGPLYPFPRTVNDYTHALLRHDPLGKPLLWSPFLQRPLHKRKGGQVRFSNDQTIELEKKFETQKYLSPPERKRLAKMLQLSERQVKTWFQNRRAKWRRLKQENPQSNKKEELESLDSSCDQRQDLPSEQNKGASLDSSQCSPSPASQEDLESEISEDSDQEVDIEGDKSYFNAG
B5: HMG20A (protein, UniProt Q9NP66 1-347, looked up)
High mobility group protein …: MENLMTSSTLPPLFADEDGSKESNDLATTGLNHPEVPYSSGATSSTNNPEFVEDLSQGQLLQSESSNAAEGNEQRHEDEQRSKRGGWSKGRKRKKPLRDSNAPKSPLTGYVRFMNERREQLRAKRPEVPFPEITRMLGNEWSKLPPEEKQRYLDEADRDKERYMKELEQYQKTEAYKVFSRKTQDRQKGKSHRQDAARQATHDHEKETEVKERSVFDIPIFTEEFLNHSKAREAELRQLRKSNMEFEERNAALQKHVESMRTAVEKLEVDVIQERSRNTVLQQHLETLRQVLTSSFASMPLPGSGETPTVDTIDSYMNRLHSIILANPQDNENFIATVREVVNRLDR
B6: HES2 (protein, UniProt Q9Y543 1-173, looked up)
Transcription factor HES-2: MGLPRRAGDAAELRKSLKPLLEKRRRARINQSLSQLKGLILPLLGRENSNCSKLEKADVLEMTVRFLQELPASSWPTAAPLPCDSYREGYSACVARLARVLPACRVLEPAVSARLLEHLWRRAASATLDGGRAGDSSGPSAPAPAPASAPEPASAPVPSPPSPPCGPGLWRPW
B7: HMX2 (protein, UniProt A2RU54 1-273, looked up)
Homeobox protein HMX2: MGSKEDAGKGCPAAGGVSSFTIQSILGGGPSEAPREPVGWPARKRSLSVSSEEEEPDDGWKAPACFCPDQHGPKEQGPKHHPPIPFPCLGTPKGSGGSGPGGLERTPFLSPSHSDFKEEKERLLPAGSPSPGSERPRDGGAERQAGAAKKKTRTVFSRSQVYQLESTFDMKRYLSSSERACLASSLQLTETQVKTWFQNRRNKWKRQLSAELEAANMAHASAQTLVSMPLVFRDSSLLRVPVPRSLAFPAPLYYPGSNLSALPLYNLYNKLDY
B8: HMG20B (protein, UniProt Q9P0W2 1-317, looked up)
SWI/SNF-related …: MSHGPKQPGAAAAPAGGKAPGQHGGFVVTVKQERGEGPRAGEKGSHEEEPVKKRGWPKGKKRKKILPNGPKAPVTGYVRFLNERREQIRTRHPDLPFPEITKMLGAEWSKLQPTEKQRYLDEAEREKQQYMKELRAYQQSEAYKMCTEKIQEKKIKKEDSSSGLMNTLLNGHKGGDCDGFSTFDVPIFTEEFLDQNKAREAELRRLRKMNVAFEEQNAVLQRHTQSMSSARERLEQELALEERRTLALQQQLQAVRQALTASFASLPVPGTGETPTLGTLDFYMARLHGAIERDPAQHEKLIVRIKEILAQVASEHL
B9: HES3 (protein, UniProt Q61657 1-175, looked up)
Transcription factor HES-3: MEKKRRARINVSLEQLRSLLERHYSHQIRKRKLEKADILELSVKYMRSLQNSLQGLWPVPSGVDYPSGFQGGLRGVSQRLRPGEGDSGLRCPLLLQRREGSTTDSANPQATSVLNPCLPAIWAPSRAAGGSHSPQSPLPLPGGLLESSTDVVAPHPASNCQAESTRPGFRVWRPW
B10: HES5 (protein, UniProt Q5TA89 1-166, looked up)
Transcription factor HES-5: MAPSTVAVELLSPKEKNRLRKPVVEKMRRDRINSSIEQLKLLLEQEFARHQPNSKLEKADILEMAVSYLKHSKAFVAAAGPKSLHQDYSEGYSWCLQEAVQFLTLHAASDTQMKLLYHFQRPPAAPAAPAKEPKAPGAAPPPALSAKATAAAAAAHQPACGLWRPW
B11: HLF (protein, UniProt Q16534 1-295, looked up)
Hepatic leukemia factor: MEKMSRPLPLNPTFIPPPYGVLRSLLENPLKLPLHHEDAFSKDKDKEKKLDDESNSPTVPQSAFLGPTLWDKTLPYDGDTFQLEYMDLEEFLSENGIPPSPSQHDHSPHPPGLQPASSAAPSVMDLSSRASAPLHPGIPSPNCMQSPIRPGQLLPANRNTPSPIDPDTIQVPVGYEPDPADLALSSIPGQEMFDPRKRKFSEEELKPQPMIKKARKVFIPDDLKDDKYWARRRKNNMAAKRSRDARRLKENQIAIRASFLEKENSALRQEVADLRKELGKCKNILAKYEARHGPL
B12: HEYL (protein, UniProt Q9NQ87 1-328, looked up)
Hairy/enhancer-of-split …: MKRPKEPSGSDGESDGPIDVGQEGQLSQMARPLSTPSSSQMQARKKHRGIIEKRRRDRINSSLSELRRLVPTAFEKQGSSKLEKAEVLQMTVDHLKMLHATGGTGFFDARALAVDFRSIGFRECLTEVIRYLGVLEGPSSRADPVRIRLLSHLNSYAAEMEPSPTPTGPLAFPAWPWSFFHSCPGLPALSNQLAILGRVPSPVLPGVSSPAYPIPALRTAPLRRATGIILPARRNVLPSRGASSTRRARPLERPATPVPVAPSSRAARSSHIAPLLQSSSPTPPGPTGSAAYVAVPTPNSSSPGPAGRPAGAMLYHSWVSEITEIGAF
B13: HMBOX1 (protein, UniProt Q6NT76 1-420, looked up)
Homeobox-containing protein 1: MLSSFPVVLLETMSHYTDEPRFTIEQIDLLQRLRRTGMTKHEILHALETLDRLDQEHSDKFGRRSSYGGSSYGNSTNNVPASSSTATASTQTQHSGMSPSPSNSYDTSPQPCTTNQNGRENNERLSTSNGKMSPTRYHANSMGQRSYSFEASEEDLDVDDKVEELMRRDSSVIKEEIKAFLANRRISQAVVAQVTGISQSRISHWLLQQGSDLSEQKKRAFYRWYQLEKTNPGATLSMRPAPIPIEDPEWRQTPPPVSATSGTFRLRRGSRFTWRKECLAVMESYFNENQYPDEAKREEIANACNAVIQKPGKKLSDLERVTSLKVYNWFANRRKEIKRRANIEAAILESHGIDVQSPGGHSNSDDVDGNDYSEQDDSTSHSDHQDPISLAVEMAAVNHTILALARQGANEIKTEALDDD

Tested on: HEK293FT cells transfected with TF library
Experiment: Screening of TF condensates based on fluorescent puncta
Format: cell-based
Settings: Figure 1B numerical data; TF library screen, one value per transcriptional factor
How it was run: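 HEK293FT cells were reverse-transfected with Flag- or GAL4-tagged TF plasmids (1.6 μg/ml, PEI). After 60 h, cells were cultured 12 h with or without glucose, then fixed and immunostained with anti-Flag or anti-GAL4 and Alexa 488 secondaries. Fluorescent puncta were imaged over fifty random fields per well by high-content imaging.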

Row | Molecule | Z score of condensed fraction
1 | B1 | -0.5047
2 | B2 | 2.079
3 | B3 | 1.213
4 | B4 | -0.4373
5 | B5 | -0.5061
6 | B6 | -1.172
7 | B7 | 0.8931
8 | B8 | -0.2795
9 | B9 | -1.103
10 | B10 | -0.9865
11 | B11 | 2.55
12 | B12 | 1.497
13 | B13 | -0.9564
